From the supplement of paper PMC5998384

How the values were obtained:
[1] = test system: HeLa Kyoto; assay: solubility in G1/S (NP-40 vs SDS abundance) (log2 ratio); higher = more soluble; conditions: cell cycle stage: G1/S
[2] = test system: HeLa Kyoto; assay: melting temperature (median over replicates), in situ; higher = more thermally stable
[3] = test system: HeLa Kyoto; assay: solubility change mitosis vs G1/S (difference of NP-40 vs SDS log2 ratios) (log2 ratio difference); higher = more soluble in mitosis
[4] = test system: HeLa Kyoto; assay: thermal stability score vs G1/S (z-score of summed log2 fold changes over temperatures); higher = more thermally stable than in G1/S
[5] = cell cycle stage: early G1 (4.5 h after nocodazole release)
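Wherever melting temperature (median over replicates), in situ is given: HeLa Kyoto cells synchronized by double thymidine or nocodazole block, proteins quantified by TMT10plex mass spectrometry, three independent biological replicates.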
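Wherever solubility change mitosis vs G1/S (difference of NP-40 vs SDS log2 ratios) is given: synchronized HeLa Kyoto cells (double thymidine block for G1/S, nocodazole release for mitosis), protein amounts in NP-40 versus SDS lysates quantified by mass spectrometry, three biological replicates.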
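Wherever solubility in G1/S (NP-40 vs SDS abundance) is given: HeLa Kyoto cells arrested at G1/S by double thymidine block, proteins quantified by TMT10plex mass spectrometry in mild NP-40 versus SDS extracts, three biological replicates.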
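Wherever thermal stability score vs G1/S (z-score of summed log2 fold changes over temperatures) is given: synchronized HeLa Kyoto cells, proteins quantified by TMT10plex mass spectrometry, three biological replicates, mitosis taken 0.5 h after nocodazole release, G1/S directly after double thymidine block.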

Row | Substance | solubility in G1/S (log2) [1] | melting temperature ([2]; cell cycle stage: G1/S) | melting temperature ([2]; cell cycle stage: mitosis) | solubility change mitosis (log2) [3] | thermal stability score [4, 5] | thermal stability score ([4]; cell cycle stage: mitosis)
1 | MWGDSRPANRTGPFRGSQEERFAPGWNRDYPPPPLKSHAQERHSGNFPGRDSLPFDFQGHSGPPFANVEEHSFSYGARDGPHGDYRGGEGPGHDFRGGDFSSSDFQSRDSSQLDFRGRDIHSGDFRDREGPPMDYRGGDGTSMDYRGREAPHMNYRDRDAHAVDFRGRDAPPSDFRGRGTYDLDFRGRDGSHADFRGRDLSDLDFRAREQSRSDFRNRDVSDLDFRDKDGTQVDFRGRGSGTTDLDFRDRDTPHSDFRGRHRSRTDQDFRGREMGSCMEFKDREMPPVDPNILDYIQPSTQDREHSGMNVNRREESTHDHTIERPAFGIQKGEFEHSETREGETQGVAFEHESPADFQNSQSPVQDQDKSQLSGREEQSSDAGLFKEEGGLDFLGRQDTDYRSMEYRDVDHRLPGSQMFGYGQSKSFPEGKTARDAQRDLQDQDYRTGPSEEKPSRLIRLSGVPEDATKEEILNAFRTPDGMPVKNLQLKEYNTGYDYGYVCVEFSLLEDAIGCMEANQGTLMIQDKEVTLEYVSSLDFWYCKRCKANIGGHRSSCSFCKNPREVTEAKQELITYPQPQKTSIPAPLEKQPNQPLRPADKEPEPRKREEGQESRLGHQKREAERYLPPSRREGPTFRRDRERESWSGETRQDGESKTIMLKRIYRSTPPEVIVEVLEPYVRLTTANVRIIKNRTGPMGHTYGFIDLDSHAEALRVVKILQNLDPPFSIDGKMVAVNLATGKRRNDSGDHSDHMHYYQGKKYFRDRRGGGRNSDWSSDTNRQGQQSSSDCYIYDSATGYYYDPLAGTYYDPNTQQEVYVPQDPGLPEEEEIKEKKPTSQGKSSSKKEMSKRDGKEKKDRGVTRFQENASEGKAPAEDVFKKPLPPTVKKEESPPPPKVVNPLIGLLGEYGGDSDYEEEEEEEQTPPPQPRTAQPQKREEQTKKENEEDKLTDWNKLACLLCRRQFPNKEVLIKHQQLSDLHKQNLEIHRKIKQSEQELAYLERREREGKFKGRGNDRREKLQSFDSPERKRIKYSRETDSDRKLVDKEDIDTSSKGGCVQQATGWRKGTGLGYGHPGLASSEEAEGRMRGPSVGASGRTSKRQSNETYRDAVRRVMFARYKELD [RBM6] | -0.757 | 48.2 °C | 50 °C | 0.361 | 1.19 | 1.84
2 | MWIQVRTMDGRQTHTVDSLSRLTKVEELRRKIQELFHVEPGLQRLFYRGKQMEDGHTLFDYEVRLNDTIQLLVRQSLVLPHSTKERDSELSDTDSGCCLGQSESDKSSTHGEAAAETDSRPADEDMWDETELGLYKVNEYVDARDTNMGAWFEAQVVRVTRKAPSRDEPCSSTSRPALEEDVIYHVKYDDYPENGVVQMNSRDVRARARTIIKWQDLEVGQVVMLNYNPDNPKERGFWYDAEISRKRETRTARELYANVVLGDDSLNDCRIIFVDEVFKIERPGEGSPMVDNPMRRKSGPSCKHCKDDVNRLCRVCACHLCGGRQDPDKQLMCDECDMAFHIYCLDPPLSSVPSEDEWYCPECRNDASEVVLAGERLRESKKKAKMASATSSSQRDWGKGMACVGRTKECTIVPSNHYGPIPGIPVGTMWRFRVQVSESGVHRPHVAGIHGRSNDGAYSLVLAGGYEDDVDHGNFFTYTGSGGRDLSGNKRTAEQSCDQKLTNTNRALALNCFAPINDQEGAEAKDWRSGKPVRVVRNVKGGKNSKYAPAEGNRYDGIYKVVKYWPEKGKSGFLVWRYLLRRDDDEPGPWTKEGKDRIKKLGLTMQYPEGYLEALANREREKENSKREEEEQQEGGFASPRTGKGKWKRKSAGGGPSRAGSPRRTSKKTKVEPYSLTAQQSSLIREDKSNAKLWNEVLASLKDRPASGSPFQLFLSKVEETFQCICCQELVFRPITTVCQHNVCKDCLDRSFRAQVFSCPACRYDLGRSYAMQVNQPLQTVLNQLFPGYGNGR [UHRF1] | -0.563 | 45.8 °C | 48.3 °C | 0.3 | 4.54 | 8.25
3 | MWLEILLTSVLGFAIYWFISRDKEETLPLEDGWWGPGTRSAAREDDSIRPFKVETSDEEIHDLHQRIDKFRFTPPLEDSCFHYGFNSNYLKKVISYWRNEFDWKKQVEILNRYPHFKTKIEGLDIHFIHVKPPQLPAGHTPKPLLMVHGWPGSFYEFYKIIPLLTDPKNHGLSDEHVFEVICPSIPGYGFSEASSKKGFNSVATARIFYKLMLRLGFQEFYIQGGDWGSLICTNMAQLVPSHVKGLHLNMALVLSNFSTLTLLLGQRFGRFLGLTERDVELLYPVKEKVFYSLMRESGYMHIQCTKPDTVGSALNDSPVGLAAYILEKFSTWTNTEFRYLEDGGLERKFSLDDLLTNVMLYWTTGTIISSQRFYKENLGQGWMTQKHERMKVYVPTGFSAFPFELLHTPEKWVRFKYPKLISYSYMVRGGHFAAFEEPELLAQDIRKFLSVLERQ [EPHX1] | -0.336 | 57.9 °C | 58.1 °C | -0.197 | -3.88 | -2.14
4 | MWLKVGGLLRGTGGQLGQTVGWPCGALGPGPHRWGPCGGSWAQKFYQDGPGRGLGEEDIRRAREARPRKTPRPQLSDRSRERKVPASRISRLANFGGLAVGLGLGVLAEMAKKSMPGGRLQSEGGSGLDSSPFLSEANAERIVQTLCTVRGAALKVGQMLSIQDNSFISPQLQHIFERVRQSADFMPRWQMLRVLEEELGRDWQAKVASLEEVPFAAASIGQVHQGLLRDGTEVAVKIQYPGIAQSIQSDVQNLLAVLKMSAALPAGLFAEQSLQALQQELAWECDYRREAACAQNFRQLLANDPFFRVPAVVKELCTTRVLGMELAGGVPLDQCQGLSQDLRNQICFQLLTLCLRELFEFRFMQTDPNWANFLYDASSHQVTLLDFGASREFGTEFTDHYIEVVKAAADGDRDCVLQKSRDLKFLTGFETKAFSDAHVEAVMILGEPFATQGPYDFGSGETARRIQDLIPVLLRHRLCPPPEETYALHRKLAGAFLACAHLRAHIACRDLFQDTYHRYWASRQPDAATAGSLPTKGDSWVDPS [ADCK4] | 0.00454 | 50.7 °C | 49.8 °C | 0.0635 | -0.115 | 0.518
5 | MWRLPRALCVHAAKTSKLSGPWSRPAAFMSTLLINQPQYAWLKELGLREENEGVYNGSWGGRGEVITTYCPANNEPIARVRQASVADYEETVKKAREAWKIWADIPAPKRGEIVRQIGDALREKIQVLGSLVSLEMGKILVEGVGEVQEYVDICDYAVGLSRMIGGPILPSERSGHALIEQWNPVGLVGIITAFNFPVAVYGWNNAIAMICGNVCLWKGAPTTSLISVAVTKIIAKVLEDNKLPGAICSLTCGGADIGTAMAKDERVNLLSFTGSTQVGKQVGLMVQERFGRSLLELGGNNAIIAFEDADLSLVVPSALFAAVGTAGQRCTTARRLFIHESIHDEVVNRLKKAYAQIRVGNPWDPNVLYGPLHTKQAVSMFLGAVEEAKKEGGTVVYGGKVMDRPGNYVEPTIVTGLGHDASIAHTETFAPILYVFKFKNEEEVFAWNNEVKQGLSSSIFTKDLGRIFRWLGPKGSDCGIVNVNIPTSGAEIGGAFGGEKHTGGGRESGSDAWKQYMRRSTCTINYSKDLPLAQGIKFQ [ALDH7A1] | 0.167 | 54.3 °C | 54 °C | -0.107 | -0.224 | -1.8
6 | MWRSCLRLRDGGRRLLNRPAGGPSASMSPGPTIPSPARAYAPPTERKRFYQNVSITQGEGGFEINLDHRKLKTPQAKLFTVPSEALAIAVATEWDSQQDTIKYYTMHLTTLCNTSLDNPTQRNKDQLIRAAVKFLDTDTICYRVEEPETLVELQRNEWDPIIEWAEKRYGVEISSSTSIMGPSIPAKTREVLVSHLASYNTWALQGIEFVAAQLKSMVLTLGLIDLRLTVEQAVLLSRLEEEYQIQKWGNIEWAHDYELQELRARTAAGTLFIHLCSESTTVKHKLLKE [ATPAF2] | 0.104 | 56.8 °C | 56 °C | -0.295 | -0.051 | -1.43
7 | MWRVKKLSLSLSPSPQTGKPSMRTPLRELTLQPGALTNSGKRSPACSSLTPSLCKLGLQEGSNNSSPVDFVNNKRTDLSSEHFSHSSKWLETCQHESDEQPLDPIPQISSTPKTSEEAVDPLGNYMVKTIVLVPSPLGQQQDMIFEARLDTMAETNSISLNGPLRTDDLVREEVAPCMGDRFSEVAAVSEKPIFQESPSHLLEESPPNPCSEQLHCSKESLSSRTEAVREDLVPSESNAFLPSSVLWLSPSTALAADFRVNHVDPEEEIVEHGAMEEREMRFPTHPKESETEDQALVSSVEDILSTCLTPNLVEMESQEAPGPAVEDVGRILGSDTESWMSPLAWLEKGVNTSVMLENLRQSLSLPSMLRDAAIGTTPFSTCSVGTWFTPSAPQEKSTNTSQTGLVGTKHSTSETEQLLCGRPPDLTALSRHDLEDNLLSSLVILEVLSRQLRDWKSQLAVPHPETQDSSTQTDTSHSGITNKLQHLKESHEMGQALQQARNVMQSWVLISKELISLLHLSLLHLEEDKTTVSQESRRAETLVCCCFDLLKKLRAKLQSLKAEREEARHREEMALRGKDAAEIVLEAFCAHASQRISQLEQDLASMREFRGLLKDAQTQLVGLHAKQEELVQQTVSLTSTLQQDWRSMQLDYTTWTALLSRSRQLTEKLTVKSQQALQERDVAIEEKQEVSRVLEQVSAQLEECKGQTEQLELENSRLATDLRAQLQILANMDSQLKELQSQHTHCAQDLAMKDELLCQLTQSNEEQAAQWQKEEMALKHMQAELQQQQAVLAKEVRDLKETLEFADQENQVAHLELGQVECQLKTTLEVLRERSLQCENLKDTVENLTAKLASTIADNQEQDLEKTRQYSQKLGLLTEQLQSLTLFLQTKLKEKTEQETLLLSTACPPTQEHPLPNDRTFLGSILTAVADEEPESTPVPLLGSDKSAFTRVASMVSLQPAETPGMEESLAEMSIMTTELQSLCSLLQESKEEAIRTLQRKICELQARLQAQEEQHQEVQKAKEADIEKLNQALCLRYKNEKELQEVIQQQNEKILEQIDKSGELISLREEVTHLTRSLRRAETETKVLQEALAGQLDSNCQPMATNWIQEKVWLSQEVDKLRVMFLEMKNEKEKLMIKFQSHRNILEENLRRSDKELEKLDDIVQHIYKTLLSIPEVVRGCKELQGLLEFLS [SPAG5] | 0.306 | 48.2 °C | 48.4 °C | -0.134 | 0.87 | 2.82
8 | MYGASGGRAKPERKSGAKEEAGPGGAGGGGSRVELLVFGYACKLFRDDERALAQEQGQHLIPWMGDHKILIDRYDGRGHLHDLSEYDAEYSTWNRDYQLSEEEARIEALCDEERYLALHTDLLEEEARQEEEYKRLSEALAEDGSYNAVGFTYGSDYYDPSEPTEEEEPSKQREKNEAENLEENEEPFVAPLGLSVPSDVELPPTAKMHAIIERTASFVCRQGAQFEIMLKAKQARNSQFDFLRFDHYLNPYYKFIQKAMKEGRYTVLAENKSDEKKKSGVSSDNEDDDDEEDGNYLHPSLFASKKCNRLEELMKPLKVVDPDHPLAALVRKAQADSSTPTPHNADGAPVQPSQVEYTADSTVAAMYYSYYMLPDGTYCLAPPPPGIDVTTYYSTLPAGVTVSNSPGVTTTAPPPPGTTPLPPPTTAETSSGATSTTTTTSALAPVAAIIPPPPDVQPVIDKLAEYVARNGLKFETSVRAKNDQRFEFLQPWHQYNAYYEFKKQFFLQKEGGDSMQAVSAPEEAPTDSAPEKPSDAGEDGAPEDAAEVGARAGSGGKKEASSSKTVPDGKLVKASFAPISFAIKAKENDLLPLEKNRVKLDDDSDDDEESKEGQESSSSAANTNPAVAPPCVVVEEKKPQLTQEELEAKQAKQKLEDRLAAAAREKLAQASKESKEKQLQAERKRKAALFLQTLKNPLPEAEAGKIEESPFSVEESSTTPCPLLTGGRPLPTLEVKPPDRPSSKSKDPPREEEKEKKKKKHKKRSRTRSRSPKYHSSSKSRSRSHSKAKHSLPSAYRTVRRSRSRSRSPRRRAHSPERRREERSVPTAYRVSRSPGASRKRTRSRSPHEKKKKRRSRSRTKSKARSQSVSPSKQAAPRPAAPAAHSAHSASVSPVESRGSSQERSRGVSQEKEAQISSAIVSSVQSKITQDLMAKVRAMLAASKNLQTSAS [SFSWAP] | -0.526 | 50.4 °C | 50.6 °C | 0.468 | -0.391 | -0.0438
9 | MYH9 | 0.1 | 53.4 °C | 52.1 °C | -0.117 | -1.58 | 0.618
10 | MYO10 | -0.269 | 48.3 °C | 49.4 °C | -0.176 | 0.691 | 0.867
